Assay results as given in article PMC2115787.
Where two headings read alike, the source gives them in different places.

Key:
Assay in all cases: light chain exchange into myosin
[1] = target: myosin from adult White Rock chicken pectoralis muscle (chicken) (UniProt P02609)
[2] = target: myosin from adult White Rock chicken pectoralis muscle (chicken) (UniProt P02609); remark: listed apart in the source
[3] = target: myosin from adult White Rock chicken pectoralis muscle (chicken) (UniProt P02609); remark: listed apart in the source
[4] = target: myosin from adult White Rock chicken pectoralis muscle (chicken) (UniProt P02609); remark: listed apart in the source

In the case of “regulatory light chain LC2 singly labeled with fluorescein at Cys 125 (from UniProt P02609 1-168) (natural protein)”, the percent exchange [1] was 84%, the percent exchange [2] was 49% and the percent exchange [3] was 26%. It also gave a percent exchange [4] of 7%.
